Data: PMC4497506 (Journal of medicinal chemistry, 2015)

Molecular target: wild-type HIV-1 YU-2 Env gp120, soluble monomeric (HIV-1 YU-2, UniProt P35961)

B1: mAb F105 (antibody, V domains shown)
VH: QVQLQESGPGLVKPSETLSLTCTVSGGSISSHYWSWIRQSPGKGLQWIGYIYYSGSTNYSPSLKSRVTISVETAKNQFSLKLTSMTAADTAVYYCARGPVPAVFYGDYRLDPWGQGTLVTVSS
VL: EIVLTQSPGTLSLSAGERATLSCRASQSVSSRYLAWYQQKPGQAPRLLIYGASSRATGIPDRFSGSGSGTDFTLTISRVEPEDFAVYYCQQYDNSVCTFGQGTKLEIK
- Kd: 24 nM
